Literature values, collected in patent publication US20260250369A1, “METHODS OF TREATING LIVER FIBROSIS, INFLAMMATION OR ASSOCIATED DISEASES USING AN ANGPTL4 ANTAGONIST” (Nanyang Technological University, priority 2022, published 2026).

Target: T1, human cANGPTL4 (Homo sapiens, UniProt Q9BY76)
T1 sequence (Q9BY76 186-406 limits assumed): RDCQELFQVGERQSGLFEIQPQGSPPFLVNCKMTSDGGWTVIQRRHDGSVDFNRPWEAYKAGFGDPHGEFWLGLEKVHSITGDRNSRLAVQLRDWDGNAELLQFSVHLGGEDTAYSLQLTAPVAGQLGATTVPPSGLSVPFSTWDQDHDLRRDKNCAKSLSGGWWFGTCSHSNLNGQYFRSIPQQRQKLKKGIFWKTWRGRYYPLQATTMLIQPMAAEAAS

Effect on mitochondrial activities and glucose regulations of ANGPTL4: does not affect
B1: mAb11F6C4: murine monoclonal antibody directed against human cANGPTL4; heavy chain SEQ ID NO 15, light chain SEQ ID NO 16 (antibody, V domains shown)
VH: QVQLQESGPGILKPSQTLSLTCSFSGFSLSTSGMGVGWIRQPSGKGLERLAHIWWDDDKYYNPSLKSQLTISKDTSRNQVFLKIISVDTADTATYYCARKDYGSSYDYRGQGTTVTVS
VL: DIELTQSPASLAVSLGQRATISCKASQSVDYDGDSYLNRFQQKPGQPPKLLIYTASNLESGIPARFSGSGSGTDFTLNIHPVEEEDAATYYCQQSNEDPWTFGGGTKLEIKR
Epitope targeted: target an epitope that resides within the C-terminus of human ANGPTL4
